The sequences below were run on Escherichia coli TOP10 (assay: shrunken log2 fold change of peptide-encoding DNA abundance (4.5 h post-induction vs induction); higher = less antimicrobial activity (less host growth inhibition)). Settings: time post-induction: 4.5 h; library: site-saturation at positions 5, 18, 19, 20.
For RRIRPRPPRLPRPRPRPWSLPRP, the “shrunken log2 fold change” value was -0.0559. RRIRSRPPRLPRPRPRPVFSPRP was tested, and the “shrunken log2 fold change” value was -0.43. For RRIRVRPPRLPRPRPRPSVRPRP, the “shrunken log2 fold change” value was -0.297. For RRIRVRPPRLPRPRPRPAIMPRP, the “shrunken log2 fold change” value was 0.191. In the case of RRIRKRPPRLPRPRPRPFPFPRP, the “shrunken log2 fold change” value is reported as -0.255. RRIRTRPPRLPRPRPRPQFTPRP was tested, and the “shrunken log2 fold change” value was -0.0397. In the case of RRIRGRPPRLPRPRPRPPAHPRP, the “shrunken log2 fold change” value is reported as 1.02. With RRIRERPPRLPRPRPRPQFNPRP the “shrunken log2 fold change” value was -0.167. For RRIRGRPPRLPRPRPRPRYIPRP, the “shrunken log2 fold change” value was -0.222. In the case of RRIRVRPPRLPRPRPRPMWMPRP, the “shrunken log2 fold change” value is reported as 0.109. In the case of RRIRMRPPRLPRPRPRPNGTPRP, the “shrunken log2 fold change” value is reported as 0.0915. RRIRGRPPRLPRPRPRPYRYPRP was tested, and the “shrunken log2 fold change” value was 0.322. In the case of RRIRHRPPRLPRPRPRPCWHPRP, the “shrunken log2 fold change” value is reported as -0.112. In the case of RRIRDRPPRLPRPRPRPVVIPRP, the “shrunken log2 fold change” value is reported as 2.82. For RRIRVRPPRLPRPRPRPSKMPRP, the “shrunken log2 fold change” value was -0.243. For RRIRMRPPRLPRPRPRPKLQPRP, the “shrunken log2 fold change” value was 0.273. RRIRRRPPRLPRPRPRPKEDPRP was tested, and the “shrunken log2 fold change” value was 0.196. In the case of RRIRGRPPRLPRPRPRPGACPRP, the “shrunken log2 fold change” value is reported as 0.911. For RRIRARPPRLPRPRPRPHVIPRP, the “shrunken log2 fold change” value was 0.0726. For RRIRARPPRLPRPRPRPYSFPRP, the “shrunken log2 fold change” value was -0.0794. For RRIRARPPRLPRPRPRPHTCPRP, the “shrunken log2 fold change” value was -0.29. For RRIRDRPPRLPRPRPRPTVQPRP, the “shrunken log2 fold change” value was 0.158. In the case of RRIRGRPPRLPRPRPRPCLAPRP, the “shrunken log2 fold change” value is reported as 0.599. With RRIRDRPPRLPRPRPRPTFGPRP the “shrunken log2 fold change” value was 0.228. RRIRDRPPRLPRPRPRPLADPRP was tested, and the “shrunken log2 fold change” value was 0.0597. For RRIRCRPPRLPRPRPRPTGMPRP, the “shrunken log2 fold change” value was -0.013. With RRIRIRPPRLPRPRPRPHCSPRP the “shrunken log2 fold change” value was -1.21. RRIRVRPPRLPRPRPRPYGFPRP was tested, and the “shrunken log2 fold change” value was -0.222. RRIRERPPRLPRPRPRPQCIPRP was tested, and the “shrunken log2 fold change” value was 0.0341. RRIRTRPPRLPRPRPRPATMPRP was tested, and the “shrunken log2 fold change” value was -0.0723. For RRIRTRPPRLPRPRPRPFGAPRP, the “shrunken log2 fold change” value was 0.334. For RRIRLRPPRLPRPRPRPPRWPRP, the “shrunken log2 fold change” value was 0.408. RRIRKRPPRLPRPRPRPFMHPRP was tested, and the “shrunken log2 fold change” value was 0.0291. In the case of RRIRTRPPRLPRPRPRPFEFPRP, the “shrunken log2 fold change” value is reported as -0.508. With RRIRQRPPRLPRPRPRPMNCPRP the “shrunken log2 fold change” value was -0.0255. RRIRKRPPRLPRPRPRPENYPRP was tested, and the “shrunken log2 fold change” value was -0.0275. RRIRNRPPRLPRPRPRPSSRPRP was tested, and the “shrunken log2 fold change” value was -0.164. RRIRERPPRLPRPRPRPDGVPRP was tested, and the “shrunken log2 fold change” value was -0.162. In the case of RRIRMRPPRLPRPRPRPSKHPRP, the “shrunken log2 fold change” value is reported as 0.159. For RRIRSRPPRLPRPRPRPFLLPRP, the “shrunken log2 fold change” value was -0.411. For RRIRCRPPRLPRPRPRPMRDPRP, the “shrunken log2 fold change” value was 0.281. With RRIRSRPPRLPRPRPRPSSEPRP the “shrunken log2 fold change” value was 0.0612. With RRIRVRPPRLPRPRPRPHWEPRP the “shrunken log2 fold change” value was -0.0118. In the case of RRIRKRPPRLPRPRPRPCCNPRP, the “shrunken log2 fold change” value is reported as 0.0185. With RRIRNRPPRLPRPRPRPNWRPRP the “shrunken log2 fold change” value was 0.216. With RRIRSRPPRLPRPRPRPPWTPRP the “shrunken log2 fold change” value was 0.319. With RRIRYRPPRLPRPRPRPTFGPRP the “shrunken log2 fold change” value was -0.0386. RRIRIRPPRLPRPRPRPGYMPRP was tested, and the “shrunken log2 fold change” value was -0.442. For RRIRERPPRLPRPRPRPFSHPRP, the “shrunken log2 fold change” value was -0.153. RRIRCRPPRLPRPRPRPWIWPRP was tested, and the “shrunken log2 fold change” value was -0.128. RRIRTRPPRLPRPRPRPYYQPRP was tested, and the “shrunken log2 fold change” value was -0.122. In the case of RRIRFRPPRLPRPRPRPKDGPRP, the “shrunken log2 fold change” value is reported as -0.184. RRIRNRPPRLPRPRPRPFTTPRP was tested, and the “shrunken log2 fold change” value was -0.0245. In the case of RRIRWRPPRLPRPRPRPHVPPRP, the “shrunken log2 fold change” value is reported as -0.161. For RRIRFRPPRLPRPRPRPSFSPRP, the “shrunken log2 fold change” value was -0.702. In the case of RRIRPRPPRLPRPRPRPEPPPRP, the “shrunken log2 fold change” value is reported as 0.474. In the case of RRIRSRPPRLPRPRPRPKGNPRP, the “shrunken log2 fold change” value is reported as -0.144. In the case of RRIRHRPPRLPRPRPRPGFMPRP, the “shrunken log2 fold change” value is reported as 0.0294. RRIRTRPPRLPRPRPRPLQCPRP was tested, and the “shrunken log2 fold change” value was 0.174. In the case of RRIRTRPPRLPRPRPRPTFPPRP, the “shrunken log2 fold change” value is reported as -0.0187. In the case of RRIRCRPPRLPRPRPRPVHWPRP, the “shrunken log2 fold change” value is reported as -0.21. With RRIRSRPPRLPRPRPRPRFVPRP the “shrunken log2 fold change” value was 0.129. RRIRIRPPRLPRPRPRPGVAPRP was tested, and the “shrunken log2 fold change” value was 0.276. For RRIRDRPPRLPRPRPRPGAPPRP, the “shrunken log2 fold change” value was 0.598. For RRIRWRPPRLPRPRPRPHMSPRP, the “shrunken log2 fold change” value was 0.033. In the case of RRIRLRPPRLPRPRPRPAGSPRP, the “shrunken log2 fold change” value is reported as 0.268. With RRIRCRPPRLPRPRPRPFYPPRP the “shrunken log2 fold change” value was -0.511. RRIRRRPPRLPRPRPRPSIDPRP was tested, and the “shrunken log2 fold change” value was -0.107. RRIRRRPPRLPRPRPRPNIFPRP was tested, and the “shrunken log2 fold change” value was -0.0516. With RRIRWRPPRLPRPRPRPPIIPRP the “shrunken log2 fold change” value was -0.151. RRIRVRPPRLPRPRPRPTKEPRP was tested, and the “shrunken log2 fold change” value was -0.0294. For RRIRPRPPRLPRPRPRPGEPPRP, the “shrunken log2 fold change” value was 0.0896. RRIRGRPPRLPRPRPRPVITPRP was tested, and the “shrunken log2 fold change” value was -0.09. With RRIRERPPRLPRPRPRPGCLPRP the “shrunken log2 fold change” value was -0.017. With RRIRDRPPRLPRPRPRPAMNPRP the “shrunken log2 fold change” value was 0.139.
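Further: peptides expressed intracellularly from a pBAD plasmid library in pooled LB shake-flask culture, induced with 0.3% L-arabinose, DNA abundance read by NGS, three biological replicates, DESeq2 with apeglm shrinkage.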
